Data reported in patent US7611721B1, “Adjuvant combination formulations” (priority 2000, dated 2009).
Like-named read-outs stand apart in the source and are kept apart here.

How the values were obtained:
[1] = system: T1SP10MN(A) (−Cys); settings: Experiment 3, 14 days after second immunization
Method: (§1) The protocols of Experiment 2 were followed, with Swiss-Webster mice used instead of Balb/c mice. Only reciprocal anti-peptide IgG endpoint titers and vaginal lavage endpoint reciprocal endpoint IgG and IgA antibody titers were measured in this experiment.
Reciprocal anti-T1SP10MN(A) (−Cys) IgG endpoint titers were measured from geometric means from individual Swiss-Webster mice (GMT), obtained 14 days after the second immunization. IgG1 and IgG2a subclass endpoint titers were also measured from pooled serum. For recipients of Freund's adjuvants, mice were primed with peptide emulsified in CFA, and boosted with IFA. […] Aqueous MPL™ was delivered at 50 μg per dose. Recombinant murine IL-12 was delivered at 40 ng/mouse. Recombinant murine GM-CSF was delivered at 10 μg/mouse.

[2] = system: T1SP10MN(A) (−Cys)
Method: Mice were immunized subcutaneously in the rump, in a total volume of 0.2 ml equally divided on each side of the tail. Immunizations were administered at varying time intervals, as indicated below. Antigen and cytokines were diluted in phosphate buffered saline to the appropriate concentrations and formulated with adjuvants less than 16 hours prior to immunization, under sterile conditions. Vaccines were mixed by gentle agitation, and stored at 4° C. Formulations were mixed by vortex immediately prior to immunization.
Animals were bled prior to initial immunization, and at indicated time points. Serum was analyzed from individual mice, or as pools from mice within groups.
For analysis of HIV peptide-specific antibody and subclass distribution, peptide was suspended in either carbonate buffer (15 mM Na2CO3, 35 mM NaHCO3, pH 9.6), or PBS, at a concentration of 1 μg/ml and plated to 96 well microtiter plates (Nunc) in a volume of 100:1. After overnight incubation at 37° C., plates were washed, and blocked (0.1% gelatin/PBS) at room temperature for 2-4 hours. ELISA plates were washed with wash buffer (PBS, 0.1% Tween™20) before addition of serially diluted serum (PBS, 0.1% gelatin, 0.05% Tween™20, 0.02% sodium azide). After a four hour incubation, wells were washed and appropriate dilutions of biotinylated anti-isotype/subclass antibodies were added for incubation at 4° C. overnight. Wells were washed and incubated with strepavidin-conjugated horseradish peroxidase. After incubation, wells were washed, and developed with ABTS. Wells were read at 405 nm. Titers were standardized using control sera.
Reciprocal anti-HIV peptide-specific IgG endpoint titers were measured from pooled serum (n=5 Balb/c) at the indicated time points after initial immunization. Mice were immunized subcutaneously in the rump with 25 μg of T1SP10MN(A) (−Cys), unless otherwise indicated, on day 0, and on day 27. For recipients of Freund's adjuvants, mice were primed with peptide emulsified in CFA, and boosted with IFA. MPL™ SE was provided as an emulsion containing 2% squalene oil and 50 μg MPL™ per dose. SE is an oil-in-water emulsion vehicle consisting of squalene, glycerol, and an emulsifying agent. Recombinant murine IL-12 was delivered at 50 ng/mouse. Recombinant murine GM-CSF was delivered at 10 μg/mouse.
Reciprocal endpoint IgG subclass titers were measured from pooled serum (n=5 Balb/c) six weeks after initial immunization, two weeks after secondary immunization. Mice were immunized subcutaneously in the rump with 25 μg of peptide, unless otherwise indicated. For recipients of Freund's adjuvants, mice were primed with peptide emulsified in complete Freund's adjuvant, and boosted with incomplete Freund's adjuvant on weeks four and six. MPL™ SE was provided as an emulsion containing 2% squalene oil and 50 μg MPL™ per dose. SE is an oil-in-water emulsion vehicle consisting of squalene, glycerol, and an emulsifying agent. Recombinant murine IL-12 was delivered at 50 ng/mouse. Recombinant murine GM-CSF was delivered at 10 μg/mouse.
Mice were immunized subcutaneously in the rump, in a total volume of 0.2 ml equally divided on each side of the tail. Immunizations were administered on days 0 and 21 with 25 μg of the HIV peptide, together with the indicated amount of adjuvant(s).
Reciprocal anti-peptide IgG endpoint titers were measured from either geometric means from individual mice (GMT) or from pooled serum (n=5 Balb/c), obtained 14 days after the second immunization. IgG1 and IgG2a subclass endpoint titers were also measured from pooled serum.

[3] = system: T1SP10MN(A) (−Cys); settings: Experiment 3; pooled, n=5 Swiss-Webster; 15 days after secondary immunization
Method: as §1
Aqueous MPL™ was delivered at 50 μg per dose. Recombinant murine IL-12 was delivered at 40 ng/mouse. Recombinant murine GM-CSF was delivered at 10 μg/mouse.

[4] = Experiment 1, pooled serum n=5 Balb/c, 25 μg peptide s.c. day 0 and 27
[5] = Experiment 1, pooled serum n=5 Balb/c, six weeks after initial, two weeks after secondary immunization, 25 μg peptide
[6] = Experiment 2, pooled serum n=5 Balb/c, 14 days after second immunization
[7] = Experiment 4, individual Balb/c mouse, day 41, 13 days after secondary immunization (days 0 and 28)
[8] = Experiment 4, pooled serum n=5 Balb/c, day 41, 13 days after secondary immunization
[9] = Experiment 5, pooled serum n=5 Balb/c, immunized days 0 and 22, bled day 42

B1: GM-CSF: Recombinant murine granulocyte macrophage colony stimulating factor (protein, UniProt P01587 18-141, looked up)
Granulocyte-macrophage …: APTRSPITVTRPWKHVEAIKEALNLLDDMPVTLNEEVEVVSNEFSFKKLTCVQTRLKIFEQGLRGNFTKLKGALNMTASYYQTYCPPTPETDCETQVTTYADFIDSLKTFLTDIPFECKKPGQK
[1]; individual Swiss-Webster mice
  Reciprocal anti-HIV peptide IgG (GMT) endpoint titer: 500
[1]; pooled serum Swiss-Webster
  Reciprocal anti-HIV peptide IgG1 (pool) endpoint titer: <1000
  Reciprocal anti-HIV peptide IgG2a (pool) endpoint titer: <1000
[2]; [4]
  Reciprocal anti-T1SP10MN(A) (-Cys) IgG endpoint titer, WEEK 4: <100
  Reciprocal anti-T1SP10MN(A) (-Cys) IgG endpoint titer, WEEK 6: 17,579
  Reciprocal anti-T1SP10MN(A) (-Cys) IgG endpoint titer, WEEK 8: 12,537
[2]; [5]
  Reciprocal anti-T1SP10MN(A) (-Cys) IgG1 endpoint titer: 1,783
  Reciprocal anti-T1SP10MN(A) (-Cys) IgG2a endpoint titer: <100
  Reciprocal anti-T1SP10MN(A) (-Cys) IgG2b endpoint titer: <100
[2]; Experiment 2, geometric mean of individual Balb/c mice, 14 days after second immunization
  Reciprocal anti-T1SP10MN(A) (−Cys) IgG (GMT) endpoint titer: 1,756
[2]; [6]
  Reciprocal anti-T1SP10MN(A) (−Cys) IgG1 (pool) endpoint titer: 14,538
  Reciprocal anti-T1SP10MN(A) (−Cys) IgG2a (pool) endpoint titer: 4,864
[2]; Experiment 2, pooled serum n=5 Balb/c, immunized days 0 and 21, 14 days after second immunization
  Reciprocal anti-T1SP10MN(A) (−Cys) IgG (pool) endpoint titer: 27,333
[2]; [7]
  IgG serum titer specific for T1SP10MN(A) (−Cys), Mouse #1: 50
  IgG serum titer specific for T1SP10MN(A) (−Cys), Mouse #2: 50
  IgG serum titer specific for T1SP10MN(A) (−Cys), Mouse #3: 50
  IgG serum titer specific for T1SP10MN(A) (−Cys), Mouse #4: 50
  IgG serum titer specific for T1SP10MN(A) (−Cys), Mouse #5: 50
[2]; Experiment 4, n=5 Balb/c, day 41, 13 days after secondary immunization
  Geometric Mean IgG serum titer specific for T1SP10MN(A) (−Cys), GMT: 50
[2]; [8]
  Reciprocal anti-T1SP10MN(A) (−Cys) IgG1 endpoint titer: 5,514
  Reciprocal anti-T1SP10MN(A) (−Cys) IgG2a endpoint titer: <100
  Reciprocal anti-T1SP10MN(A) (−Cys) IgG2b endpoint titer: <100
[2]; Experiment 5, geometric mean n=5 Balb/c, immunized days 0 and 22, bled day 42
  Reciprocal anti-T1SP10MN(A) (−Cys) IgG GMT: 5,133
[2]; [9]
  Reciprocal anti-T1SP10MN(A) (−Cys) IgG1 endpoint titer: 3,815
  Reciprocal anti-T1SP10MN(A) (−Cys) IgG2a endpoint titer: <1000
  Reciprocal anti-T1SP10MN(A) (−Cys) IgG2b endpoint titer: <1000
  Reciprocal anti-T1SP10MN(A) (−Cys) IgG endpoint titer: 11,639
[3]
  Vaginal lavage reciprocal anti-HIV peptide IgA endpoint titer: <10
  Vaginal lavage reciprocal anti-HIV peptide IgG endpoint titer: <10
